From patent publication US20180010140A1 (WASHINGTON STATE UNIVERSITY, published 2018)

T1: BPM4 (At3 g03740), yeast two-hybrid construct (Arabidopsis thaliana, UniProt Q9SRV1 1-465, limits assumed)
T1 construct: Yeast two-hybrid fusion
T1 sequence (looked up): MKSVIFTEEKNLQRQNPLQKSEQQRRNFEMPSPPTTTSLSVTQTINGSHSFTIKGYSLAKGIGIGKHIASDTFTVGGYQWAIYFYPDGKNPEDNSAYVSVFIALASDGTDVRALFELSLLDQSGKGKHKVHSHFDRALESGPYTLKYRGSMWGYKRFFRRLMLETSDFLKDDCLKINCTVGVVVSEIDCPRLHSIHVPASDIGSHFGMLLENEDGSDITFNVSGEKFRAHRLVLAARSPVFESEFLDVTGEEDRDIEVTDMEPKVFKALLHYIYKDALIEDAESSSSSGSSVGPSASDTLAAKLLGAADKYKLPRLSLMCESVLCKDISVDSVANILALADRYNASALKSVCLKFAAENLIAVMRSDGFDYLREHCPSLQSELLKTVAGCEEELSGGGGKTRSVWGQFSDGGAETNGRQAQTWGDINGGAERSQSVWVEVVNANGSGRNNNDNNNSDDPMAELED

B1: BPM1 (At5 g19000), yeast two-hybrid construct (other, Arabidopsis thaliana, UniProt Q8L765 1-407, looked up)
chain: MGTTRVCSEVSSGSSKSLSQSLTVSTSTTETVNGFHEFKICGYSLAKGVGVGKYVASDTFMVGGYSWAIYFYPDGKSPEDNSSYVSLFIALASEGADVRALFELTLVDQSGNGKHKVHSHFGRALDSGPYTLKYRGSMWGYKRFFRRSSLESSDYLKENSLLVRCRVGVVKSVTEGPRYYNIPVPVSNLGQQLGNLLESGKGCDVVFQVDGETFNAHKLVLATRSPVFNAQLFGPLGDRNTKCITIEDMEAPIFKVLLHFIYWDELPDMQELIGTDSTLASTLVAQHLLAAADRYALERLKAICESKLCEGVAINTVATTLALAEQHHCLQLKAVCLKFVALPENLKAVMQTDGFDYLKESCPSLLTELLQYVARLSEHSVIVSGHRKEIFADGCDASGRRVKPRLH
notes: also called BTB/POZ-MATH protein 1
B2: WRI1 (At3 g54320), yeast two-hybrid construct (other, Arabidopsis thaliana, UniProt Q6X5Y6 1-430, looked up)
chain: MKKRLTTSTCSSSPSSSVSSSTTTSSPIQSEAPRPKRAKRAKKSSPSGDKSHNPTSPASTRRSSIYRGVTRHRWTGRFEAHLWDKSSWNSIQNKKGKQVYLGAYDSEEAAAHTYDLAALKYWGPDTILNFPAETYTKELEEMQRVTKEEYLASLRRQSSGFSRGVSKYRGVARHHHNGRWEARIGRVFGNKYLYLGTYNTQEEAAAAYDMAAIEYRGANAVTNFDISNYIDRLKKKGVFPFPVNQANHQEGILVEAKQEVETREAKEEPREEVKQQYVEEPPQEEEEKEEEKAEQQEAEIVGYSEEAAVVNCCIDSSTIMEMDRCGDNNELAWNFCMMDTGFSPFLTDQNLANENPIEYPELFNELAFEDNIDFMFDDGKHECLNLENLDCCVVGRESPPSSSSPLSCLSTDSASSTTTTTTSVSCNYLV
notes: Yeast two-hybrid fusion (bait pBTM116-D9 against BPM1 as prey; both bait and prey in the self-assembly test); also called WRINKLED1
B3: BPM5 (At5 g21010), yeast two-hybrid construct (other, Arabidopsis thaliana, UniProt Q1EBV6 1-410, looked up)
chain: MSESVIQGSNPDRVLSPTSSKSVTQTVNGSHQFVIQGYSLAKGMGIGKHIASDNFSVGGYQWGIFFYPDGKNPEDNSSYVSVFIALASEGTEVRALFELALVDQSGKGKHKVHSHFERSLDGGPYTLKYRGSMWGYKRFFRRSILETSDYLKDDCLIINCTVGVVVSEILCPQLHSVHVPDSELGSHFGVLLDSMEGSDITFNIAGEKFLAHKLVLAARSPFFKSKFFSEFEANNTEVTINDLEPKVFKALLQFMYKDSLPEDVEPATAHTFERLKLSEIYETLIVKVLAAADKYDLIRLRLLCESHICKGVSVKSVAKILALADRYNAKELKGVCLKFTAENLAAVLETDAYQQMKDECVTLQSELLKAVAGHEEGSNSTGGAKSQSVWAQLSDGGGDTTSRHVRQRTT
notes: Yeast two-hybrid fusion
B4: BPM3 (At2 g39760), yeast two-hybrid construct (other)
chain: MSTVGGIEQLIPDSVSTSFIETVNGSHQFTIQGYSLAKGMSPGKFIQSDIFSVGGYDWAIYFYPDGKNPEDQSSYISLFIALASDSNDIRALFELTLMDQSGKGKHKVHSHFDRALEGGPYTLKYKGSMWGYKRFFKRSALETSDYLKDDCLVINCTVGVVRARLEGPKQYGIVLPLSNMGQGLKDLLDSEVGCDIAFQVGDETYKAHKLILAARSPVFRAQFFGPIGNNNVDRIVIDDIEPSIFKAMLSFIYTDVLPNVHEITGSTSASSFTNMIQHLLAAADLYDLARLKILCEVLLCEKLDVDNVATTLALAEQHQFLQLKAFCLEFVASPANLGAVMKSEGFKHLKQSCPTLLSELLNTVAAADKSSTSGQSNKKRSASSVLGCDTTNVRQLRRRTRKEVRAVS
notes: Yeast two-hybrid fusion (pACT2 or pBTM116-D9)

Experiments:
Assay in all cases: yeast two-hybrid
[1] = biological target: B2
Procedure: (§1) If not otherwise stated in this and subsequent FIGS. 30 μg of total protein extract were loaded as input, and experiments were done with 14-days old seedlings.
(§2) SDII selection medium supplemented with uracil and His was used as a transformation control, while for interaction studies, SDIV minimal medium was chosen without uracil and His supplements. Photos were taken from single spots 7 days after plating. […] Extraction and washing buffers contained at all times 1 mM PMSF (Sigma-Aldrich) and 10 μM MG132 (Sigma-Aldrich) to prevent proteolytic and proteasomal activities, respectively. […] In general, proteins were incubated at least 1.5 h at 4° C. under shaking conditions before being centrifuged.

yeast two-hybrid = biological target: the molecule itself
Procedure: as §1, §2

[2] = biological target: T1, BPM4 (At3 g03740), yeast two-hybrid …
Procedure: as §1, §2

Row | Binder | binding result [1] | binding result (yeast two-hybrid) | binding result [2]
1 | B1 | binds |  | 
2 | B2 |  | binds | binds
3 | B3 | binds |  | 
4 | B4 | binds |  | 
